Positions of bridges follow the written chain, without caps; N, C: chain ends. No end group written: not given here.
How the values were obtained:
[1] = target: human β-klotho (human, UniProt Q86Z14 1-1044); assay: cell-based or functional assay
[2] = target: β-klotho of differentiated 3T3-L1 adipocytes (mouse) (UniProt Q99N32); assay: cell-based or functional assay
[3] = target: T1, murine serum albumin (mouse, UniProt P07724 25-608); assay: SPR (Biacore), albumin immobilized on CM5 chip
T1 construct: also called MuSA; mouse serum albumin
T1 sequence (P07724 25-608 limits assumed): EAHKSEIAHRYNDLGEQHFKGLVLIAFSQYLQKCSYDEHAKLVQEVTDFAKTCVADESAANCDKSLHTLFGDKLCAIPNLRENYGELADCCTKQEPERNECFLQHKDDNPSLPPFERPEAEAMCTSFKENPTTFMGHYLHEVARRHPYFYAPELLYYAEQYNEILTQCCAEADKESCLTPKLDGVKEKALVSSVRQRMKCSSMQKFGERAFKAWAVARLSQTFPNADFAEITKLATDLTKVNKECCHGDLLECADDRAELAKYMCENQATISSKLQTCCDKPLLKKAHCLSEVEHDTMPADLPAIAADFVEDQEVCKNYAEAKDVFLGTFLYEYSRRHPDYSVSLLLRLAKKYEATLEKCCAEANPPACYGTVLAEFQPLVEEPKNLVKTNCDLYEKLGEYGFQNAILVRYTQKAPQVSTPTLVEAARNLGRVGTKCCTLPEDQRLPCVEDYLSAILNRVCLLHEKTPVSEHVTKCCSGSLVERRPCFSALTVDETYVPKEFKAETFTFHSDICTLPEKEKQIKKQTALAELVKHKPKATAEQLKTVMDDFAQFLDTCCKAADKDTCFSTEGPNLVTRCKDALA
Method: (§2) In addition, binding to albumin was carried out under various pH conditions ranging from pH 5.5 to pH 7.4.

[4] = target: T2, human serum albumin (human, UniProt P02768 25-609); assay: SPR (Biacore), albumin immobilized on CM5 chip
T2 construct: also called HSA; HuSA
Method: as §2

[5] = target: T3, rhesus serum albumin (rhesus, UniProt Q28522 17-600); assay: SPR (Biacore), albumin immobilized on CM5 chip
T3 construct: also called RhSA
T3 sequence (Q28522 17-600 limits assumed): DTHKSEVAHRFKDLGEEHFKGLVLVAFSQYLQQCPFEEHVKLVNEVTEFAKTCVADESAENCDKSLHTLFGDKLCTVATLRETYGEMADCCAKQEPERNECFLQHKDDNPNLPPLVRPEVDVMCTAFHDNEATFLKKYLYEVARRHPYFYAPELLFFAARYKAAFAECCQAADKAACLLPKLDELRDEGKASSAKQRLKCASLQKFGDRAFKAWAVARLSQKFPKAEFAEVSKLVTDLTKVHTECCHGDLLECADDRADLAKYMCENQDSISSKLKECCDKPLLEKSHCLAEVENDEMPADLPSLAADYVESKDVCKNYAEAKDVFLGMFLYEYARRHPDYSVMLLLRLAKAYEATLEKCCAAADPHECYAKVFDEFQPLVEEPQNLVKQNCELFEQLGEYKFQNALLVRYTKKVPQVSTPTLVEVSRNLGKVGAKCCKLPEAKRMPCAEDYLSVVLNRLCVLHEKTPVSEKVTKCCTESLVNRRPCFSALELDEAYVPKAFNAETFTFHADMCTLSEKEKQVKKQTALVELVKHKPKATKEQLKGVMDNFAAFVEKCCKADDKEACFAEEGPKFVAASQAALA
Method: as §2

[6] = target: Amylin receptor (chimpanzee; human, UniProt O60894 27-148); assay: cell-based or functional assay
Amylin receptor, sequence (O60894 27-148): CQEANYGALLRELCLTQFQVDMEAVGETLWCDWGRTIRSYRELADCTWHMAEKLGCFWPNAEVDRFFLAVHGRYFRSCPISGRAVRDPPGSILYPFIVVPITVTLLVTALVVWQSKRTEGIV

[7] = target: T2, human serum albumin; assay: Affinity for hSA by SPR (same value as in Table 21)
Method: (§1) Surface Plasmon Resonance (SPR) is a direct binding technique by which molecular interactions can be observed in real time. For these experiments, SPR binding studies were performed using a ProteOn XPR36 instrument (BioRad Laboratories). The running buffer, phosphate buffered saline 0.05% Tween 20 pH 7.4, was purchased from Teknova (cat #P1192) and all experiments were run at 25° C. Human serum albumin was directly immobilized on a BioRad GLC chip via amine coupling as per manufacturer's guidelines using amine coupling reagents purchased from BioRad Laboratories. Human serum albumin was purchased from Novozymes (Recombumin™). About 5000 resonance units (RU) of human serum albumin were immobilized onto 4 separate lanes of the GLC chip surface. […] The dissociation was monitored for 600 seconds. The surface was regenerated with 100 mM HCl. The resultant data were fitted to a Langumuir 1:1 binding model using the ProteOn Manager Software. The experiment was repeated with a different concentration range. In this second experiment, 5 concentrations ranging from 500 nM to 32 nM were injected over the surfaces, and the data analyzed as above. The KD is the disassociation constant. Smaller numbers indicate tighter binding to serum albumin.

[8] = target: T2, human serum albumin; assay: SPR (ProteOn XPR36), HSA immobilized on GLC chip, 25 C
Method: as §1

[9] = target: human NPY Y4 receptor (human, UniProt P50391 1-375); assay: cell-based or functional assay
human NPY Y4 receptor, sequence (P50391 whole entry): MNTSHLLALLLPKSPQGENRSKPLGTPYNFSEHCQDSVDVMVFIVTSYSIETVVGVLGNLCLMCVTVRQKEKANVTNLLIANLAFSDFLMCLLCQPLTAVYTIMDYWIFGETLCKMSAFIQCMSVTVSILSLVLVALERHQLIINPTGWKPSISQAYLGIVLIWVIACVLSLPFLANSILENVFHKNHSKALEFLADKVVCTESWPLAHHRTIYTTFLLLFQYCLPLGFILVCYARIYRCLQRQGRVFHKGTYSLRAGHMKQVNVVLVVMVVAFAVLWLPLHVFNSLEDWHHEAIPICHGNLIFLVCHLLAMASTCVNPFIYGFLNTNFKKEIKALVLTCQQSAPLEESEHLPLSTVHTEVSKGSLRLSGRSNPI

β-klotho of differentiated 3T3-L1 adipocytes (mouse), sequence (Q99N32 whole entry): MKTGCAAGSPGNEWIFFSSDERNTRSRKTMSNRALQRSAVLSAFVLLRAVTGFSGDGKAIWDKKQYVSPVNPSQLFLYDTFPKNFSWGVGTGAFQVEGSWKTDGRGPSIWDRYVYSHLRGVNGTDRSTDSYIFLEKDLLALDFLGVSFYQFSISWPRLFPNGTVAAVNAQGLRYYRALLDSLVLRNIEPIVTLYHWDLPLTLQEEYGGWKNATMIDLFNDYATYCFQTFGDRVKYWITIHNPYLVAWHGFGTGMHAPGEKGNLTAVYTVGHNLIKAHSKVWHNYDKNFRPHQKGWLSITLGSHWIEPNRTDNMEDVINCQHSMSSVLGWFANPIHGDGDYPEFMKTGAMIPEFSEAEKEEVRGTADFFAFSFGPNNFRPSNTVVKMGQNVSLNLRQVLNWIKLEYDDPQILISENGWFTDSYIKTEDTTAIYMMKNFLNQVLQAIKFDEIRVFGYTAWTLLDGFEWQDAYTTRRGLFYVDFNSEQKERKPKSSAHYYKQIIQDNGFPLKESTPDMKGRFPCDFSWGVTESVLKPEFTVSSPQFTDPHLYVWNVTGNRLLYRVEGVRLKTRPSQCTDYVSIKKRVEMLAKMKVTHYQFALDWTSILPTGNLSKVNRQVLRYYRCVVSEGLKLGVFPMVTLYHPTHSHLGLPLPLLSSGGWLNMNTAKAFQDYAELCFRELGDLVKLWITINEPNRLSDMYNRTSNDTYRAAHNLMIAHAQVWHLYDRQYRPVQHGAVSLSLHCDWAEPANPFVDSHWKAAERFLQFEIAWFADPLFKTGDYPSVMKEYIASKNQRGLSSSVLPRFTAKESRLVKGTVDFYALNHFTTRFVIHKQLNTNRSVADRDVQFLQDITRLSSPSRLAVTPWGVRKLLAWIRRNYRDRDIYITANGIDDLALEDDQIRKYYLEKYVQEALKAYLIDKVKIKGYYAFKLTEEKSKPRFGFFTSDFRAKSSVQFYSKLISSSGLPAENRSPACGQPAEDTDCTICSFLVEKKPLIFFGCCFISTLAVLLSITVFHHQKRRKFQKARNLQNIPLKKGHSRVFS

His-tagged FGF21 (from UniProt Q9NSA1 29-209) (ligand)
EC50 (nM), pERK 1/2 assay in HEK β-Klotho expressing stable cells [1]: 7 nM
Efficacy (%), pERK 1/2 assay in HEK β-Klotho expressing stable cells [1]: 100%
EC50 (nM), pERK assay in 3T3-L1 adipocytes [2]: 4 nM
Fold Activation, pERK assay in 3T3-L1 adipocytes [2]: 2.1 fold

B1: SABA4.1 (designed binder)
chain: MGVSDVPRDLEMVAATPTSLLISWEDDSYYSRYYRITYGETGGNSPVQEFTVPSDLYTATISGLKPGVDYTITVYAVTYDVTDLIMHEPISINYRTEIDKPSQHHHHHH
notes: His6-tagged Adnectin core 4; has a scaffold mutation; the scaffold-perfect version is SABA5
binding result [3]: no binding
Kd [4]: 412 nM
koff [4]: 0.000782 s⁻¹
Kd [5]: > 1000 nM
koff [5]: 0.00383 s⁻¹

B2: SABA1-AMYv25 (designed binder)
chain: MGVSDVPRDLEVVAATPTSLLISWHSYYEQNSYYRITYGETGGNSPVQEFTVPYSQTTATISGLKPGVDYTITVYAVYGSKYYYPISINYRTEIEDEDEDEDEDGC
modifications: Maleimide-PEG20 spacer (X1) between the Cys after (ED)5G and AMYv5 (rat amylin); C-terminal amidation; disulfide bridge between the two Cys residues of amylin
notes: also called SABA-Amylin-CONH2 conjugate; SABA1.7-(ED)5G-Cys-PEG20-Amylin-CONH2
Cell based Potency (EC50, nM), cellular cAMP assay [6]: 12.2 nM
Efficacy (% of native peptide ligand maximal activity), cellular cAMP assay [6]: 119%
Kd [7]: 25.8 nM
Kd [8]: 25.8 nM
koff [8]: 0.000241 s⁻¹
kon [8]: 9340 M⁻¹ s⁻¹

B3: SABA1-PPv7 (designed binder)
chain: MGVSDVPRDLEVVAATPTSLLISWHSYYEQNSYYRITYGETGGNSPVQEFTVPYSQTTATISGLKPGVDYTITVYAVYGSKYYYPISINYRTEIEDEDEDEDEDGC
modifications: Maleimide-PEG20 spacer (X1) between the Cys after (ED)5G and PPv9 (mouse PP); C-terminal amidation
notes: also called SABA-PP-CONH2 conjugate; SABA1-APPv7
Potency (EC50), GTPγS binding functional assay [9]: > 1000 nM
Kd [7]: 18.8 nM
Kd [8]: 18.8 nM
koff [8]: 0.000142 s⁻¹
kon [8]: 7880 M⁻¹ s⁻¹

B4: SABA2.1 (designed binder)
chain: MGVSDVPRDLEVVAATPTSLLISWPKYDKTGHYYRITYGETGGNSPVQEFTVPTRQTTATISGLKPGVDYTITVYAVSKDDYYPHEHRPISINYRTEIDKPSQHHHHHH
notes: His6-tagged Adnectin core 2
binding result [3]: no binding
Kd [4]: 33.8 nM
koff [4]: 0.000171 s⁻¹
Kd [5]: 63.6 nM
koff [5]: 0.000442 s⁻¹

B5: Amylin Control Peptide (peptide)
peptide: KCNTATCATQRLANFLVRSSNNLGPVLPPTNVGSNTY-NH2
modifications: disulfide 2-7
Efficacy (% of native peptide ligand maximal activity), cellular cAMP assay [6]: 100%

B6: SABA3.1 (designed binder)
chain: MGVSDVPRDLEVVAATPTSLLISWSNDGPGLSYYRITYGETGGNSPVQEFTVPSSQTTATISGLKPGVDYTITVYAVSYYTKKAYSAGPISINYRTEIDKPSQHHHHHH
notes: His6-tagged Adnectin core 3
binding result [3]: no binding
Kd [4]: 863 nM
koff [4]: 0.0682 s⁻¹
Kd [5]: 431 nM
koff [5]: 0.0337 s⁻¹

B7: PP Control Peptide (peptide)
peptide: APLEPMYPGDYATPEQMAQYETQLRRYINTLTRPRY-NH2
Potency (EC50, nM), GTPγS binding functional assay [9]: 1.7 nM

B8: SABA1.1 (designed binder)
chain: MGVSDVPRDLEVVAATPTSLLISWHSYYEQNSYYRITYGETGGNSPVQEFTVPYSQTTATISGLKPGVDYTITVYAVYGSKYYYPISINYRTEIDKPSQHHHHHH
binding result [3]: no binding
Kd [4]: 47.2 nM
koff [4]: 0.000457 s⁻¹
Kd [5]: 778 nM
koff [5]: 0.00545 s⁻¹

— US20190203248A1 (Bristol-Myers Squibb, published 2019)
